The results in this text go back to article doi:10.1101/2022.04.14.487897 (bioRxiv, 2022).

Usually Kd stands for a measure of binding affinity in units of concentration. Read a high Kd as lower affinity. As a reminder, the Ki is a measure of affinity in units of concentration, obtained from inhibition or displacement.

For assay [1], the target named is mortalin (HSPA9) (UniProt P38646). In words: MST.
The target of assay [2] is mortalin (HSPA9) (UniProt P38646 47-679, Alexa 647 dye (NanoTemper) / NT-647 label). In words: MST.
mortalin (HSPA9) (UniProt P38646 47-679, Alexa 647 dye (NanoTemper) / NT-647 label), sequence (P38646 47-679): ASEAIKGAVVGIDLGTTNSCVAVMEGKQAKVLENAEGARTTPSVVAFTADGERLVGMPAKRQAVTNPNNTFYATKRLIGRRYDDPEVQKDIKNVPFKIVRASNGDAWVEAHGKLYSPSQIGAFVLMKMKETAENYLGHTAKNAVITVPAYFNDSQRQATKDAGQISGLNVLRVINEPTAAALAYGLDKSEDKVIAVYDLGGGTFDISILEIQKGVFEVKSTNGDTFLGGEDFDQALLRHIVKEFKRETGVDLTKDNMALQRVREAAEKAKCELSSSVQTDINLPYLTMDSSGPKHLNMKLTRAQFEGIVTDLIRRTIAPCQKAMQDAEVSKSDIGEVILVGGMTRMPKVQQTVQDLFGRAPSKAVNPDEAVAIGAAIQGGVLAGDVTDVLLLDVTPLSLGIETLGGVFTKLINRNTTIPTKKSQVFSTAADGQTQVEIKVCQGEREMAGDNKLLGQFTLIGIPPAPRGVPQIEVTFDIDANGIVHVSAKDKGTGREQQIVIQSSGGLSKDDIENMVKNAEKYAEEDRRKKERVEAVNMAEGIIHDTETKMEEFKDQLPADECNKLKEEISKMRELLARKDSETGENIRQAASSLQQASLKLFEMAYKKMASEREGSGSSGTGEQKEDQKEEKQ
Assay [3] deals with H26Y cytochrome c (globular structure, high peroxidase activity) (UniProt P00004). In words: enzyme inhibition.
In assay [4] the target is ferrous cytochrome c (Fe2+), horse heart (horse, UniProt P00004 1-105, heme iron ferrous (Fe^2+)). In words: enzyme inhibition.
ferrous cytochrome c (Fe2+), horse heart, sequence (P00004 whole entry): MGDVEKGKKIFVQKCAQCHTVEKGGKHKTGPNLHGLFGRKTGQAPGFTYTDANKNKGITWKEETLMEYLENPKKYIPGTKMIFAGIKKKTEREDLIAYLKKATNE

mortalin (HSPA9) (UniProt P38646), sequence (P38646 47-679): as the sequence (P38646 47-679) above

“Bcl-2 (from UniProt P10415 1-239) (natural protein)”: in assay [1], the Kd stood at 171 nM.

B1: full-length human p66Shc (wildtype) (natural protein, UniProt P29353-1 1-583, looked up)
chain: MDLLPPKPKYNPLRNESLSSLEEGASGSTPPEELPSPSASSLGPILPPLPGDDSPTTLCSFFPRMSNLRLANPAGGRPGSKGEPGRAADDGEGIVGAAMPDSGPLPLLQDMNKLSGGGGRRTRVEGGQLGGEEWTRHGSFVNKPTRGWLHPNDKVMGPGVSYLVRYMGCVEVLQSMRALDFNTRTQVTREAISLVCEAVPGAKGATRRRKPCSRPLSSILGRSNLKFAGMPITLTVSTSSLNLMAADCKQIIANHHMQSISFASGGDPDTAEYVAYVAKDPVNQRACHILECPEGLAQDVISTIGQAFELRFKQYLRNPPKLVTPHDRMAGFDGSAWDEEEEEPPDHQYYNDFPGKEPPLGGVVDMRLREGAAPGAARPTAPNAQTPSHLGATLPVGQPVGGDPEVRKQMPPPPPCPGRELFDDPSYVNVQNLDKARQAVGGAGPPNPAINGSAPRDLFDMKPFEDALRVPPPPQSVSMAEQLRGEPWFHGKLSRREAEALLQLNGDFLVRESTTTPGQYVLTGLQSGQPKHLLLVDPEGVVRTKDHRFESVSHLISYHMDNHLPIISAGSELCLQQPVERKL
modifications: Alexa 647 label (only in the MST with cytochrome c, where p66Shc was the labelled protein)
For the molecule B1, the Kd in assay [2] worked out at 858 nM. Besides, the Ki in assay [3] turned out to be 3540 nM; in assay [4], 1430 nM.
